# Measured values: patent US20220177587A1, “METHODS AND USES OF VARIANT CD80 FUSION PROTEINS AND RELATED CONSTRUCTS” (Alpine Immune Sciences, Inc., priority 2018, published 2022)
# Residue numbers refer to the chain shown, from its start. Numbers in names are those of the source.
# B1: L65H/D90G/T110A/F116L (protein)
# chain: VIHVTKEVKEVATLSCGHNVSVEELAQTRIYWQKEKKMVLTMMSGDMNIWPEYKNRTIFDITNNHSIVILALRPSDEGTYECVVLKYEKGAFKREHLAEVTLSVKADFPAPSISDLEIPTSNIRRIICSTSGGFPEPHLSWLENGEELNAINTTVSQDPETELYAVSSKLDFNMTTNHSFMCLIKYGHLRVNQTFNWNTTKQEHFPDN
# modifications: CD80 v141 ECD
# B2: M38V/T41D/M43I/W50G/D76G/V83A/K89E/I118V/T120S/I126V/T130A (protein)
# chain: VIHVTKEVKEVATLSCGHNVSVEELAQTRIYWQKEKKVVLDMISGDMNIGPEYKNRTIFDITNNLSIVILALRPSGEGTYECAVLKYEEDAFKREHLAEVTLSVKADFPTPSISDFEVPSSNIRRVICSASGGFPEPHLSWLENGEELNAINTTVSQDPETELYAVSSKLDFNMTTNHSFMCLIKYGHLRVNQTFNWNTTKQEHFPDN
# B3: T28S/L70Q/A91G/E95K/I118V/T120S/I126V/T130A/K169E (protein, UniProt P33681 35-288, looked up, variant T28S L70Q A91G E95K I118V T120S I126V T130A K169E)
# T-lymphocyte activation …: VIHVTKEVKEVATLSCGHNVSVEELAQSRIYWQKEKKMVLTMMSGDMNIWPEYKNRTIFDITNNLSIVIQALRPSDEGTYECVVLKYEKDGFKRKHLAEVTLSVKADFPTPSISDFEVPSSNIRRVICSASGGFPEPHLSWLENGEELNAINTTVSQDPETELYAVSSELDFNMTTNHSFMCLIKYGHLRVNQTFNWNTTKQEHFPDNLLPSWAITLISVNGIFVICCLTYCFAPRCRERRRNERLRRESVRPV
# B4: N63S/L70Q/A91G/S114T/I118V/T120S/T130A (protein)
# chain: VIHVTKEVKEVATLSCGHNVSVEELAQTRIYWQKEKKMVLTMMSGDMNIWPEYKNRTIFDITSNLSIVIQALRPSDEGTYECVVLKYEKDGFKREHLAEVTLSVKADFPTPSITDFEVPSSNIRRIICSASGGFPEPHLSWLENGEELNAINTTVSQDPETELYAVSSKLDFNMTTNHSFMCLIKYGDLRVNQTFNWNTTKQEHFPDN
# modifications: CD80 v133 ECD
# B5: Y31H/T41G/M43L/L70Q/A91G/I118V/T120S//I126V/T130A (protein)
# chain: B4 chain with Y31H, T41G, M43L, S63N, T114S, I126V, D188H
# B6: I67T/L70Q/A91G/I118V/T120S (protein)
# chain: B4 chain with S63N, I67T, T114S, A130T, D188H, N196H
# modifications: CD80 v144 ECD
# B7: A91G/L102S (protein)
# chain: B1 chain with H65L, G90D, A91G, L102S, A110T, L116F
# B8: E52G/L70Q/A91G/D107N/I118V/T1205/T130A/K169E (protein)
# chain: B4 chain with E52G, S63N, D107N, T114S, K169E, D188H
# B9: R29H/E52G/L70R/E88G/A91G/T130A (protein)
# chain: B4 chain with R29H, E52G, S63N, Q70R, E88G, T114S, V118I, S120T, D188H
# modifications: CD80 v24 ECD
# B10: K54M/L70Q/A91G/Y164H (protein)
# chain: B4 chain with K54M, S63N, T114S, V118I, S120T, A130T, Y164H
# modifications: CD80 v138 ECD
# B11: A91G (protein)
# chain: B1 chain with H65L, G90D, A91G, A110T, L116F
# B12: K36E/I67T/L70Q/A91G/I118V/T1205/T130A/N152T (protein)
# chain: B4 chain with K36E, S63N, I67T, T114S, N152T, D188H
# B13: M38T/L70Q/E77G/A91G/I118V/T120S/T130A/N152T (protein)
# chain: B4 chain with M38T, S63N, E77G, T114S, N152T, D188H
# B14: K37E/F595/L70Q/A91G/T120S/T130A (protein)
# chain: B4 chain with K37E, F59S, S63N, T114S, K185E, D188H
# B15: K89E/T130A (protein)
# chain: B1 chain with H65L, K89E, G90D, A110T, L116F, T130A
# modifications: CD80 v19 ECD
# B16: D60V/A91G/I118V/T120S/T130A/K169E (protein)
# chain: B4 chain with D60V, S63N, Q70L, T114S, K169E, D188H
# modifications: CD80 v137 ECD
# B17: L70Q/A91G/T110A/I118V/T120S/T130A (protein)
# chain: B4 chain with S63N, T110A, T114S, D188H
# modifications: CD80 v145 ECD
# B18: R29H/E52G/D90N/I118V/T120S/T130A (protein)
# chain: B4 chain with R29H, E52G, S63N, Q70L, D90N, G91A, T114S, D188H
# modifications: CD80 v142 ECD
# B19: A91G/S103P (protein)
# chain: B1 chain with H65L, G90D, A91G, S103P, A110T, L116F
# B20: V68A/T110A (protein)
# chain: B1 chain with H65L, V68A, G90D, L116F
# modifications: CD80 v26 ECD
# System: human pan T cells
# Assay: Anti-CD3 coimmobilization assay, IFN-gamma
# Format: cell-based
# Conditions: Table E32; variant ECD-Fc coimmobilized with anti-CD3; culture supernatant
# Procedure, shortened: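 Plates coated overnight with 1 nM or 4 nM OKT3 anti-CD3 plus 1–80 nM rCD80.Fc variants, then washed. Purified human pan T cells or BC3 T cell clone (100,000/well) cultured 3 days in Ex-Vivo 15; supernatant IFN-gamma measured by ELISA.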
row,Molecule,Coimmobilization with anti CD3 IFN-gamma
1,B1,129 pg/mL
2,B2,82 pg/mL
3,B3,120 pg/mL
4,B4,116 pg/mL
5,B5,288 pg/mL
6,B6,1751 pg/mL
7,B7,75 pg/mL
8,B8,94 pg/mL
9,B9,200 pg/mL
10,B10,152 pg/mL
11,B11,220 pg/mL
12,B12,53 pg/mL
13,B13,119 pg/mL
14,B14,109 pg/mL
15,B15,204 pg/mL
16,B16,120 pg/mL
17,B17,77 pg/mL
18,B18,124 pg/mL
19,B19,124 pg/mL
20,B20,163 pg/mL

# System: allogeneic CD4+ T cells
# Assay: Mixed Lymphocyte Reaction (MLR), IFN-gamma
# Format: cell-based, human
# Conditions: Table E32; variant ECD-Fc in MLR assay; culture supernatant
# Experimental: Soluble rCD80.Fc bioactivity was tested in a human Mixed Lymphocyte Reaction (MLR). Human primary dendritic cells (DC) were generated by culturing monocytes isolated from PBMC (BenTech Bio, USA) in vitro for 7 days with 500U/ml rIL-4 (R&D Systems, USA) and 250 U/ml rGM-CSF (R&D Systems, USA) in Ex-Vivo 15 media (Lonza, Switzerland). 10,000 matured DC and 100,000 purified allogeneic CD4+ T cells (BenTech Bio, USA) were co-cultured with variant CD80 Fc fusion proteins and controls in 96 well round bottom plates in 200 μl final volume of Ex-Vivo 15 media. On day 5, IFN-gamma secretion in culture supernatants was analyzed using the Human IFN-gamma Duoset ELISA kit (R&D Systems, USA). Optical density was measured by VMax ELISA Microplate Reader (Molecular Devices, USA) and quantitated against titrated rIFN-gamma standard included in the IFN-gamma Duo-set kit (R&D Systems, USA).
row,Molecule,MLR IFN-gamma levels
1,B1,758 pg/mL
2,B2,671 pg/mL
3,B3,834 pg/mL
4,B4,705 pg/mL
5,B5,782 pg/mL
6,B6,794 pg/mL
7,B7,698 pg/mL
8,B8,874 pg/mL
9,B9,740 pg/mL
10,B10,685 pg/mL
11,B11,877 pg/mL
12,B12,852 pg/mL
13,B13,796 pg/mL
14,B14,863 pg/mL
15,B15,761 pg/mL
16,B16,744 pg/mL
17,B17,656 pg/mL
18,B18,800 pg/mL
19,B19,670 pg/mL
20,B20,861 pg/mL
